Test results taken from paper PMC2704382 (Cell, 2009).

Target: GSK3β used in the surface plasmon resonance binding assays (UniProt P49841 1-420)
Assay: SPR

Chain of GSK3β used in the surface plasmon resonance binding assays (P49841 whole entry): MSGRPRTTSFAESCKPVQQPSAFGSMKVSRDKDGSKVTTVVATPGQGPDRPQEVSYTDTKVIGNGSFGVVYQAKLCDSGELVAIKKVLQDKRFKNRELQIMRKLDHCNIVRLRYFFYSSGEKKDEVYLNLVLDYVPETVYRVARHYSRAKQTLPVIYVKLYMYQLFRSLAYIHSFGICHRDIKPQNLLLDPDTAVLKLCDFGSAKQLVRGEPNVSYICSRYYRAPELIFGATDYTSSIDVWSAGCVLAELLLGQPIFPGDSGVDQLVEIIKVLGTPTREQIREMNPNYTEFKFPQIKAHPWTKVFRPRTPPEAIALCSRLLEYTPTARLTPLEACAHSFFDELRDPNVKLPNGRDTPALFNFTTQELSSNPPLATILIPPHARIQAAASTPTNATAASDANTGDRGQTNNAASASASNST

| Binder | stoichiometry N |
| --- | --- |
| SFSFIQLSLGAAGER (peptide, UniProt Q811T9 211-225, looked up) [DISCtide2 (15-mer peptide, mDISC1 amino acids 211 to 225)] | 2 peptide:protein |
| PADIASLPGFQDTFTSSFSFIQLSLGAAGERGEAEGCLPSREAE (peptide, UniProt Q811T9 195-238, looked up) [DISCtide-1 (mDISC1 amino acids 195 to 238)] | 2 peptide:protein |
